What all share (assay): purified protein
Type in all cases: biochemical, Phormidium nigroviride
What all share (settings): 50 mM Tris-HCl pH 8.0, 30 °C, 3 μg/mL enzyme, 25-175 μM substrate

Substrate in data set [1]: CCCCC/C=C\C/C=C\C/C=C\C/C=C\CCCC(=O)O
Substrate in data set [2]: CC/C=C\C/C=C\C/C=C\C/C=C\C/C=C\CCCC(=O)O
Substrate in data set [3]: CC/C=C\C/C=C\C/C=C\C/C=C\C/C=C\C/C=C\CCC(=O)O

Broadly, the Km is the concentration of substrate that gives half-maximal velocity. As usually defined, the kcat is the maximal rate divided by the concentration of active sites. What is called kcat/Km is the turnover number divided by the Michaelis constant.

B1: Osc-LOX (Phormidium nigroviride PCC 7112) (protein)
chain: MVDNMKPSLPQDDPNQEQRKDSLNRQQQAYQFDYESLSPLALLKNVPAVENFSSKYIGERILATSELPANMLAADSRTFLDPLDELQDYEDFFTLLPLPAVAKIYQTDRSFAEQRLSGANPMVLRLLDAGDPRAQTLAQISSFHPLFDLGQELQQKNIYVADYTGTDEHYRAPSKIGGGSYEKGRKFLPKPRAFFAWRWTGIRDRGEMTPIAIQLDPTPDSHVYTPFDPPVDWLFAKLCVQVADANHHEMSSHLGRTHLVMEPIAIVTARQLAQNHPLSLLLKPHFRFMLTNNELARSYLIAPGGPVDELLGGTLPETMEIAREACSTWSLDEFALPAELKNRGMDDTNQLPHYPYRDDGLLLWDAIETFVSGYLKFFYPTEIAIVQDVELQTWAQELASDRGGKVKGMPPRINTVEQLIKIVTTIIFTCGPQHSAVNFPQYEYMSFAANMPLAAYRDIPKITASGNLEVITEKDILRLLPPYKRAADQLKILFTLSAYRYDRLGYYDKSFRELYRMSFDEVFAGTPIQLLARQFQQNLNMAEQKIDANNQKRVIPYIALKPSLVINSISM
notes: N-terminal His6 tag (pET-28a, NdeI/XhoI) kept; codon-optimized synthetic gene; E. coli BL21(DE3)
Consider B1, for which, in the data set “purified protein [1]”, the Km stood at 68.9 ± 3.5 µM, the kcat came to 19.6 ± 0.277 s⁻¹ and the kcat/Km amounted to 285000 ± 10000 M⁻¹ s⁻¹. In addition, in “purified protein [2]”, the Km stood at 67.0 ± 3.6 µM, the kcat came to 15.6 ± 0.452 s⁻¹ and the kcat/Km amounted to 233000 ± 6670 M⁻¹ s⁻¹. In addition, in the data set “purified protein [3]”, the Km was 63.9 ± 4.8 µM, the kcat came out at 13.9 ± 0.348 s⁻¹ and the kcat/Km was determined as 218000 ± 11700 M⁻¹ s⁻¹.

The record behind these values is paper PMC7606508, “Synthesis of two new lipid mediators from docosahexaenoic acid by combinatorial catalysis involving enzymatic and chemical reaction” (Scientific Reports, 2020).
